Results reported in the nanobody polyreactivity screen of Harvey et al. (2022).

Assay: yeast display, Sf9 membrane polyspecificity reagent, FACS + sequencing; frameworks hold sequencing errors
In short: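 Galactose induction of a Saccharomyces cerevisiae BJ5465 synthetic nanobody display library ran 36–48 hours. The cells were then stained for 1 hour at 4 °C with 10% biotinylated, detergent-solubilized Sf9 membrane reagent, pulled down on streptavidin microbeads and FACS-sorted into low and high (top ~1%) gates on expression and reagent-binding fluorescence. Labels for polyreactivity follow the gate of origin.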

| Sequence | polyreactivity (PSR sort gate) |
| --- | --- |
| QVQLVESGGGLVQAGGSLRLSCAASGRTFTRYVMGWYRQAPAKEREVVAAISSSGGTYYADSVKGRFTISRDNAKNTVYLQMNSLKPEDTAVYYCAVGSKLSRSYGYYYWGQGTQVTVSS | high polyreactivity |
| QVQLVESGGGLVQAGGSLRLSCAASGITFLFYAMGWYIPAPGKEREYVAAISTRGGRTYYADSVKGRFTISRDNAKNTVYLQMNSLKPEDTAVYYCAADFYYRTVATVTSVARYDYWGQGTQVTVSS | high polyreactivity |
| QVQLVESGGGLVQAGGSLRLSSAASGSTFTPYVMGWYRQAPGKERELVAAISKRGGSTYYADSVKGRFTISRDNANNTVYLQMNSLKPEDTAVYYCAAVQPAWGNGYWGQGTQVTVSS | high polyreactivity |
| QVQLVESGGGLVQAGGSLRLICAASGFIFLVNAMGWYRQAPGKERELVAAISLSTTSTYYADSVKGRFTISRDNAKNTVYLQMNSLKPEDTAVYYCAADHWGVGAPTYGQYTTHDYWGQGTQVTVSS | low polyreactivity |
| QVHLVESGGGLVQAGGSLLLSCSASGSIFTFNAMGWYRQAPGKERELVAAISSGGNTYYADSEKGRFTISRDNAKNSVYLQMNSLKPEDTAVYYCAAVRRTDGDGKYYYWGQGTEVTVSS | high polyreactivity |
| QVQLVESGGGLVQAGGSLRLSCAASGSIFFFNAMGWYRQAPGKEREFVAAITSSSGRTYYADSVKGRFTISRDNAKNTVYLQMNSLKPEDTAVYYCAAEGLDEGDYWGQGTQVTVSS | low polyreactivity |
| QVQLVDSVVGLVQAGGSLRLSFAASGYTYHYYAMGWYRQAPGKETELVAAISGSGSSTYYADSVKGRFTISRDNAKNTVYLQMNSLKPEDTAVYYCNARGHYPRARFGYKSGSDRYWGQGTQVTVSS | high polyreactivity |
| QVQLVESGGGLVQAGGSLRLSCAASGSTIYTYVMGWYIQAPGKERELVAAISWSGSSTYYADSVKGRCTISRDNAKNTVYLQINSLKPEDTAVYYCNAKYRRGWWGVEYGYWGQGTQVTVSS | low polyreactivity |
| HVQLVESGGGLVQAGGSLRLSCAASGRISDRYAMGWSRQAPGKEREFVAAISWSGASTYYADSVKGRFTISRDNAKNTVYLQMNSLKAEDTAVYYCAARRRHKYDYWGQGTQVTVSS | high polyreactivity |
| QVQLVESGGGLVQAGGSLRLSCAASGRIFRYNAMGWYRQAPGKERELVADINSGGITNYADSVKGRFTISRDNAKNTVYFQKNSLKPEDTAVYYCNTATNLSCGYDSWGQGTQVTVSS | low polyreactivity |
| QVQLVESGGGLVQAGGSLRLSCAASGFTFRGYAMGWYRQAPGKERELVASITYRGGSTYYADSVKGRFTISRDNAKNTVYLQMNSLKPEDTADYYCNAGFGGRRRQDAFIGTSIYDYWGQGTQVTVSS | low polyreactivity |
| QVQLVESGGGLDQAGGSLRLSCAASGFTFYRNAMGWYRQAPGKERELVAAITSGGSTYYADSVKGRFTISRDNAKNTVYLQMNSLKPEDTAVYYCAAYVWSGWGHWFYYWGQGTQVTVSS | high polyreactivity |
| QVQLVESGGGLVQAGGSLRLSCAASGYTYWQYAMGWYRQAPGKERELVATITSRGGSTYYADSVKGRFTISRDNAKNTVYLQMNSLIPEDTAVYYCNARRRYSTRRSDYWGQGTQVTVSS | high polyreactivity |
| QVQLVESGGCLVQAGGSLRLSSAASGFIFSRYAMGWYRQATGKERELVASISWGGGSTSYADSVKGRFTISRDNAKYTVYLQMNSLKPEDTAVYYCNARVRSHRFNYWGQGTQVTVSS | high polyreactivity |
| QVQLVESGGGLVQAGGSLRLSCAASGFTFGNYAMYWVRQAPGKERELVAAINYSGGSTYYADSVKGRFTISRDNAKNTVYLQMNSLKPEDTAVYYCAADTYPASYDYWGQGTQVTVSS | high polyreactivity |
| QVQLVESGGGLVQAGGSLRLSCAASGFIFFINDMGWYRQAPGKERELVAAISWSGGSTYYADSVKGRFTISRDNAKNTVYLQMNSLKPEDTAVYYCNTDVPTAQYDYWGQGTQVTVSS | low polyreactivity |
| QVKLVESGGGLVQAGGSLRLSCAASGSIFGSNAMGWYRQAPGKERELVAAITGRGGRTYYADSVKGRFTISRDNAKNTVYLQMNSLKPEDTAVYYCAAIRREVVAGDYWGQGTQVTVSS | high polyreactivity |
| KVHLVESGGGLVQAGGSLRLSCPAAGFTLDQYAMGWYRQAPGKEMELVAVITSGVNTYYADSVKGRFTISRDNAKNTVYLQMNSLKPEDTAVYYCAKDVCDPFYDPFEYWGQGTQVTVSS | low polyreactivity |
| QVQLVESGGGLVQSGGSLLLSCAPSGSTFYEYALGGYRQAPGKDRELVAAITSGGSTYYADSVKGRFTISRDNAKNNDYLQMNSLKPEETAVYYCAADPRIRRGDRSTHGYDYWGQGTQVTVSS | low polyreactivity |
| QVQIVESGGGLVQAGGSLRLSCAASGSTIIRNAMGWSRQAPRKERELVAAISTSGGRTHYADSVKGRFTISRDNAKNTVYLQMNSLKPEDTAVYYCASRGKGHYYYWGQGTQVTVSS | high polyreactivity |
| QVQLQESGGGLVQVGGSQRLSCAASGNIFYNYAMGWYRHAQGKEREFDATINHGTSINYADSVKGRFTISRDNAKNTVYLQMNSLKPEDTAVYYCAADLSWTDNLFYWGQGTQVTVIS | low polyreactivity |
| QVQLVESGGGLVQAGGSLRLSCAASGIIFSYYTMGWYRPAPGKERELVAAISARGGRTYYADSVKGRFTISRDNAKNTVYLQMNSLKPEDTAVYYCAASWSTEYYWGQGTQVTVSS | high polyreactivity |

| Sequence | polyreactivity (PSR sort gate) |
| --- | --- |
| QVQLVESGGGLVQAGGSLRLNCAASGSTLARYAMGWYRQAPGKERELVAAITWSGVSTYYADSVKGRFTISRDNAKNTVYLQMISLKPEDTAVYYCNARIFRSPNPYDYWGEGTQVTVSS | high polyreactivity |
| QVQLVESGGGLVQEGGSLRLSCAASGLTFPYYAMGWYRQAPGKERELVAGISDSGGSTYYADSVKGRFTISRDNAKNTVYVQMNSLKPEDTAVYYCAAQGVDSYYENVYWGQGSQVTVSS | high polyreactivity |
| QGQLVESGGGLVQAGGSLRLSCAACGSIFTYYTMGWYRQAPGKERELVAAIRWSAGRTYYADSVKGRFTISRDNAKNTVYLQMNSMKPEDTAVYYCAAAERLRHGLKFDYWGQGTQVTLSS | high polyreactivity |
| QVQLVESGGGLVQAGGSLRLSCAASGRTFGRNAMGWYRQAPGKEREFVAAISYRGGSTYYADSVKGRFTISRDNAKNTVYLQMNSLKPEDTAVYYCAVRFSAPGYYYWGQGTQVTVSS | high polyreactivity |
| QVQLVESGGGLVQAGGRLRLSCAASGRIFATNAMGWYRQAPGKERELVATITRSAGRTYYADSVKGRFTISRDNAKNTVYLQMNSLKPEDTAVYYCAADGYSTAVDDTVRYIVEYEFWGQGTQVTVSS | low polyreactivity |
| QVQLVESGGGLVQAGGSLRLSCAASGFIFSPNAMGWYRQAPGKEREFVAAIRYSGTSTSYADSVKGRFTISRDNAKNTVYLQMNSLKPEDTAVYYCNAQWRFSRGYTYNYWGQGTQVTVSS | high polyreactivity |
| QVQLVESGGGLVQAGGSLRLSCAASGSTFLSYAMGWYRQAPGKERELVAAITGSGGSTYYADSVKGRFTISRDNAKNTVYLQMNSLKPEDTAVYYCATDLWRWYGWFDYWGQGTQVTVSS | low polyreactivity |
| QVQLVESGGGLVQAGGSLRLSCAASGSIFYRYTMGWYRQARGKERELVAAISSDGGSTYYADSVKGRFTISRDNAKKTVYLQMNSLKPEDTAVYYCAAGQDGHSDWGQGTQVTVSS | low polyreactivity |
| QVQLVESGGGLVQAGGSLRLSCAASGSIFWGNAMGWYRQAPGKERELVAGISRGGSTYYADSVKGRFTISRDNAKNTVYLQMNSLKPEDTAVYYCNADSDPVTAGYDYWGQGTQVTVSS | low polyreactivity |
| QVQLVESGGGLVQAGGSLRLSCAASGGTFERNAMGWYRQAPGKERELVAAITGSGGRTYYADSVKGRFTISRDNAKNTVYLHMNSLKPEDTAVYYCAAVPWWKYNYWGQGTQVTVSS | high polyreactivity |
| QVQLVESGGGLVQAGGSLRLSCAASGSTLGYYAMGWYRQAPGKERELVAAISKGGGSTYYADSVKGRFTISRDNAKNTVYLQMNSLKPEETAVYYCAAYSTSWSRYDYWGQGTQVTVSS | high polyreactivity |
| QVQLVESGGGLVQAGGSLRLSCAASGLTFRTYAMGWYRQAPGKERELVAAITWSGDSTYADSVKGRFTISRDNAKNTVYLQMNSLKPEDTAVYYCATKGYFSYHPYDYWGQGTQVTVSS | low polyreactivity |
| KVQLVESGGGLVQAGGRLRLSCAPSGSIFGTNTMGWYRQAPGTERELVAAIRLSDSSTYYADSVKGRFTISRDNAKNTVYLQMKSLKPEDTAVYDCAVDYRAYHYYRYDYWGQGTQVTVSS | low polyreactivity |
| QVQLVESGGGLVQAGGSLRLSCAASGIIFKSYAKGWYRQAPGKARELVAAMSWIGGSTYYADSVKGRFTISRDNAKHTVYFQMTSLKPEATAVYYCNARQYRRSRMDYWGQGTQVTVSS | high polyreactivity |
| QVQLVDSGGGLVQAGGSLRLSCAASGLTCRKYTMGWYRQAPGKERELVAAISFRGGSTYYADSVKGRFTISRDNAKNTVYLQMNSLKPEDTAVYYCNARKRYSTDPGDYWGQGTQVTVSS | high polyreactivity |
| QVQLVESGGGLVQAGGSLRLSCAASGITFNKYAMGWYRQAPGKERELVAAISSRGGSTYYADSVKGRFTISRDNAKNTVYLQMNSLKPEDTAVYYCNADFYRASSNFDYWGQGTQVSVSS | high polyreactivity |
| QDQLVESGGGLVQAGGSLRLSCAASGIILRYYVMGWYRQAPGKERELVAAITSRGGSTYYADSVKGRFTISRDNAKNTVYLQMNSLKPEDTAVYYCAAGYRNVNTFDYWGQGTQVTVSS | high polyreactivity |
| QVQLVESGGGLVQAGGSLRLSCAASGSTFDAYAMGWYRQAPGKERELVAPISWSGGGTTYADSVKGRFTISRDNAKNTVYLLMNSLKPEDTAVYYCNAKGSVRDFQDTLRPEGDYWGQGTQVTVSS | low polyreactivity |
| QVQLVESGGGLVQAGGSLRLSCAASGSIFGANAMGWYRQAPGTVRELVAAISRRGGSTYYADSVKGRFTISRDNAKNTVHLQMNSLKPEDTAVYYCNTYPQSLGVKYGYWGQGTQVTVSS | high polyreactivity |
| QVQLVESGGGLVQAGGSLRLSCAASGSIFNAYAMGWYRQAPGKERELVAAISKRTSYADSVKGRFTISRDNAKNTVYLQMNSLKPEDTAVYYCANEVDEPDGYEYDYWGQGTQVTVSS | low polyreactivity |
| QVQLVESGGGLVQAGGSLRLSCAASGFTFDDYDMGWYRQAPGKERELVAAISWSGGSTYYADSVKGRFTFSRDNAKNTVYLQMNSLKPEDSAVYYCAAERSYGGFDYWGQGTQVTVSS | low polyreactivity |
